Measurements as given in patent US20250288617A1, “Gene Therapy” (priority 2022, published 2025).

B1: Ad5-E4orf6/7: adenovirus serotype 5 protein E4orf6/7 (SEQ ID No. 27), delivered as in vitro transcribed mRNA (nucleic acid)
DNA: ATGACCACCAGCGGCGTGCCCTTCGGCATGACACTCAGACCTACCAGAAGCCGGCTGAGCAGAAGAACCCCTTACAGCAGAGACAGGCTGCCTCCATTCGAGACAGAGACACGGGCCACCATCCTGGAAGATCACCCTCTGCTGCCCGAGTGTAACACCCTGACCATGCACAACGCCTGGACAAGCCCATCTCCTCCAGTGAAACAGCCCCAAGTGGGACAGCAGCCTGTTGCTCAGCAGCTGGACAGCGACATGAACCTGTCTGAACTGCCCGGCGAGTTCATCAACATCACCGACGAGAGACTGGCCCGGCAAGAGACAGTGTGGAACATCACCCCTAAGAACATGAGCGTGACCCACGACATGATGCTGTTCAAGGCCAGCAGAGGCGAGCGGACAGTGTACAGCGTTTGTTGGGAAGGCGGCGGACGGCTGAATACCAGAGTGCTGTAA
modifications: in vitro transcribed mRNA
B2: GSE56: p53 dominant negative peptide (SEQ ID NO: 3), delivered as in vitro transcribed mRNA (nucleic acid)
DNA: ATGGATGGATGGTGTCCTGGGAGAGACCGTCGGACAGAGGAAGAAAATTTCCGCAAAAAAGAAGAGCATTGCCCGGAGCTGCCCCCAGGGAGTGCAAAGAGAGCACTGCCCACCAGCACAAGCTCCTCTCCCCAGCAAAAGAAAAAACCACTCGATGGAGAATATTTCACCCTTAAGATCCGTGGGCGTGAGCGCTTCGAGATGTTCCGAGAGCTGAATGAGGCCTTGGAATTAAAGGATGCCCGTGCTGCCGAGGAGTCAGGAGACAGCAGGGCTCACTCCAGCTACCCGAAGATAGTTAGTTAG
modifications: in vitro transcribed mRNA; protein SEQ ID NO: 3

Experiments:
[1] = system: vector DNA (ITR+cargo, ITR, HIV probes) in human graft; assay: ddPCR of viral vector copies per human genome in long-term human xenografts; format: in vivo, NSG mice; settings: AAVS1-edited HSPCs, AAV template
Text: Since short-read sequencing of the edited locus and genome-wide IS identification may underestimate the overall frequency of trapping events, we performed ddPCR analyses to get an independent genome-wide quantification of AAV genome trapping events. […] On the contrary, we detected only background noise signal when probing for the AAV plasmid contaminants in the human long-term graft (FIG. 6i). […] Whether integration of AAV DNA occurs mostly as individual elements in a sizable fraction of cells treated for editing or as concatemers in only a small fraction of them cannot be determined by this analysis. Since ITR fragments are not detected by the ITR+cargo assay we performed ddPCR also with the ITR probe on PB samples of mice from FIG. 5g and found equal or higher signal in most mice (FIG. 51).
gDNA was isolated with QIAamp DNA Micro Kit from DNAse-treated in vitro culture cells pellet and in vivo samples, or with QuickExtract (Epicentre) from single colonies according to the manufacturer's instructions. For ddPCR analyses, 5-50 ng of gDNA for in vitro/vivo samples and 2 μl of gDNA for single colonies were analyzed using the QX200 Droplet Digital PCR System according to the manufacturer's instructions. […]

[2] = system: AAVS1 locus; format: in vivo, human xenograft; settings: in presence and absence of Ad5-E4orf6/7; 65 samples of published experiments
Description: PCR amplicons for individual samples were generated by nested PCR and starting from >50-100 ng of purified gDNA. The first PCR step was performed with GoTaq G2 DNA Polymerase (Promega) according to manufacturer instruction using the following amplification protocol: 95° C.×5′min, (95° C.×0.5 min, 60° C.×0.5 min, 72° C.×[…])×20 cycles, 72° C.×5 min. The second PCR step was performed with GoTaq G2 DNA Polymerase (Promega) according to manufacturer instruction using 5 μl of the first-step PCR product and the following amplification protocol: 95° C.×5 min, (95° C.×0.5 min, 60° C.×0.5 min, 72° C.×0.3 min)×20 cycles, 72° C.×5 min. […] Amplicons concentration and quality was assessed by QuantiFluor ONE dsDNA system and 4200 Tapestation System (Agilent). […]
Sequencing data were analyzed with CRISPResso2, which enables detection and quantification of insertions, mutations, and deletions in reads from gene editing experiments. In details, for each sample, input NGS reads were trimmed using the Trimmomatic software (http://www.usadellab.org/cms/?page=trimmomatic) based on the phred33 score to get rid of low-quality positions (score <30) and to remove Illumina adapters, keeping only trimmed sequences longer than 100 bp (CRISPResso2 options:—trim_sequences—trimmomatic_command trimmomatic—trimmomatic_options_string ‘[…]: TruSeq3-PE-2.fa: 2:30:10 MINLEN: 100’). […]

Molecule	ITR+cargo copies in long-term xenograft in presence of editing enhancers [1]	frequency and number of unique NHEJ-edited alleles in the human graft [2]
B1	more copies	
B2	more copies	higher
